Measurements from PMC9017343 (2022).

Experiments:
[1] = target: T1, SARS-CoV S trimer (ectodomain) (SARS-CoV, UniProt P59594 14-1195); experiment: SPR
[2] = target: T1, SARS-CoV S trimer (ectodomain); experiment: SPR; remark: listed apart in the source

B1: COVA1-16 (antibody, V domains shown)
VH: QVQLVQSGAEVKKPGASVKVSCKASGYTFTSYYMHWVRQAPGQGLEWMGIINSSGGSTSYAQKFQGRVTMTRDTSTSTVYMELSSLRSEDTAVYYCARPPRNYYDRSGYYQRAEYFQHWGQGTLVTVSS
VL: DIQLTQSPSSLSASVGDRVTITCQASQDISNYLNWYQQRPGKAPKLLIYDASNLETGVPSRFSGSGSGTDFTFTISSLQPEDIATYYCQQYDNPPLTFGGGTKLEIK
Q: For B1, which koff [1] is on record?
A: The koff was 0.0032 s⁻¹.

Q: And the Kd [2]?
A: The Kd was 19.5 nM.
